To fix the notation:
B1: 69 (nucleic acid, listed as Homo sapiens)
chain: AGTGTTTGGGTTTCTTCGCGGCTGCTCAAGATGAACCGACTCTTCGGGAAAGCGAAACCCAAGGCTCCGCCGCCCAGCCTGACTGACTGCATTGGCACGGTGGACAGTAGAGCAGAATCCATTGACAAGAAGATTTCTCGATTGGATGCTGAGCTAGTGAAGTATAAGGATCAGATCAAGAAGATGAGAGAGGGTCCTGCAAAGAATATGGTCAAGCAGAAAGCCTTGCGAGTTTTAAAGCAAAAGAGGATGTATGAGCAGCAGCGGGACAATCTTGCCCAACAGTCATTCAACATGGAACAAGCCAATTATACCATCCAGTCTTTGAAGGACACCAAGACCACGGTTGATGCTATGAAACTGGGAGTAAAGGAAATGAAGAAGGCATACAAGCAAGTGAAGATCGACCAGATTGAGGATTTACAAGACCAGCTAGAGGATATGATGGAAGATGCAAATGAAATCCAAGAAGCACTGAGTCGCAGTTATGGCACCCCAGAACTGGATGAAGATGATTTAGAAGCAGAGTTGGATGCACTAGGTGATGAGCTTCTGGCTGATGAAGACAGTTCTTATTTGGATGAGGCAGCATCTGCACCTGCAATTCCAGAAGGTGTTCCCACTGATACAAAAAACAAGGATGGAGTTCTGGTGGATGAATTTGGATTGCCACAGATCCCTGCTTCATAGATTTGCATCATTCAAGCATATCTTGTAAAACAAACACATATTATGGGACTAGGAAATATTTATCTTTCCAAATTTGCCATAACAGATTTAGGTTTCTTTCCTTTCTTTGAAGGAAAGTTTAATTACATTGCTCTTTTATTTTTTCCATTAAGAGACTCATTGCTTGGGAAATGCTTTCTTCGTACTAAAATTTGATTCCTTTTTTTCTTATGAAAAACGAACTCAGTTTAAAAGTATTTTTAGCTCGTATGACTTGTTTTCATTCATTAATAATAATTTGAAATAAAACTAAGGAAATGGAATCTTAAAAGTCTATGACAGTGTAACTCTACAGTCTCAAAATGACCTGATAAATTGATAAGACAAAGATGAGATTATTGGGGCTGTTCATATTATGATTCAGAATCATTTTCTATTGTGGTATTATAGGTTGGTTAAAGTGATGGCCTTTTTGATGGGTTTTGTTGTGTCTTGTGAACAAGTCGTTACTGTGTCCATTATTGGAATGGAATTATCACTACTGTATCATGAGTGGGTATTTTGATTCTATGGTTCCCTCAGTATTACATCTTGACTTGTAATCAATTATGAATATTTCTTGATATTTAATGTATAGGACATTTATTTATACTCAATAAATATTTTTCAAAAGG
modifications: CDS (31)..(687)
B2: 275 (nucleic acid, listed as Homo sapiens)
chain: GCAGACCCCCATCATGGGCAGCCAGAGCTCCAAGGCTCCCCGGGGCGACGTGACCGCCGAGGAGGCAGCAGGCGCTTCCCCCGCGAAGGCCAACGGCCAGGAGAATGGCCACGTGAAAAGCAATGGAGACTTATCCCCCAAGGGTGAAGGGGAGTCGCCCCCTGTGAACGGAACAGATGAGGCAGCCGGGGCCACTGGCGATGCCATCGAGCCAGCACCCCCTAGCCAGGGTGCTGAGGCCAAGGGGGAGGTCCCCCCCAAGGAGACCCCCAAGAAGAAGAAGAAATTCTCTTTCAAGAAGCCTTTCAAATTGAGCGGCCTGTCCTTCAAGAGAAATCGGAAGGAGGGTGGGGGTGATTCTTCTGCCTCCTCACCCACAGAGGAAGAGCAGGAGCAGGGGGAGATCGGTGCCTGCAGCGACGAGGGCACTGCTCAGGAAGGGAAGGCCGCAGCCACCCCTGAGAGCCAGGAACCCCAGGCCAAGGGGGCAGAGGCTAGTGCAGCCTCAGAAGAAGAGGCAGGGCCCCAGGCTACAGAGCCATCCACTCCCTCGGGGCCGGAGAGTGGCCCTACACCAGCCAGCGCTGAGCAGAATGAGTAGCTAGGTAGGGGCAGGTGGGTGATCTCTAAGCTGCAAAAACTGTGCTGTCCTTGTGAGGTCACTGCCTGGACCTGGTGCCCTGGCTGCCTTCCTGTGCCCAGAAAGGAAGGGGCTATTGCCTCCTCCCAGCCACGTTCCCTTTCCTCCTCTCCCTCCTGTGGATTCTCCCATCAGCCATCTGGTTCTCCTCTTAAGGCCAGTTGAAGATGGTCCCTTACAGCTTCCCAAGTTAGGTTAGTGATGTGAAATGCTCCTGTCCCTGGCCCTACCTCCTTCCCTGTCCCCACCCCTGCATAAGGCAGTTGTTGGTTTTCTTCCCCAATTCTTTTCCAAGTAGGTTTTGTTTACCCTACTCCCCAAATCCCTGAGCCAGAAGTGGGGTGCTTATACTCCCAAACCTTGAGTGTCCAGCCTTCCCCTGTTGTTTTTAGTCTCTTGTGCTGTGCCTAGTGGCACCTGGGCTGGGGAGGACACTGCCCCGTCTAGGTTTTTATAAATGTCTTACTCAAGTTCAAACCTCCAGCCTGTGAATCAACTGTGTCTCTTTTTTGACTTGGTAAGCAAGTATTAGGCTTTGGGGTGGGGGGAGGTCTGTAATGTGAAACAACTTCTTGTCTTTTTTTCTCCCACTGTTGTAAATAACTTTTAATGGCCAAACCCCAGATTTGTACTTTTTTTTTTTTTCTAACTGCTAAAACCATTCTCTTCCACCTGGTTTTACTGTAACATTTGG
modifications: CDS (14)..(598)
B3: 261 (nucleic acid, listed as Homo sapiens)
chain: AGTGCGCGAAGATGCGAAAGGTGGTTTTGATCACCGGGGCTAGCAGTGGCATTGGCCTGGCCCTCTGCAAGCGGCTGCTGGCGGAAGATGATGAGCTTCATCTGTGTTTGGCGTGCAGGAACATGAGCAAGGCAGAAGCTGTCTGTGCTGCTCTGCTGGCCTCTCACCCCACTGCTGAGGTCACCATTGTCCAGGTGGATGTCAGCAACCTGCAGTCGGTCTTCCGGGCCTCCAAGGAACTTAAGCAAAGGTTTCAGAGATTAGACTGTATATATCTAAATGCTGGGATCATGCCTAATCCACAACTAAATATCAAAGCACTTTTCTTTGGCCTCTTTTCAAGAAAAGTGATTCATATGTTCTCCACAGCTGAAGGCCTGCTGACCCAGGGTGATAAGATCACTGCTGATGGACTTCAGGAGGTGTTTGAGACCAATGTCTTTGGCCATTTTATCCTGATTCGGGAACTGGAGCCTCTCCTCTGTCACAGTGACAATCCATCTCAGCTCATCTGGACATCATCTCGCAGTGCAAGGAAATCTAATTTCAGCCTCGAGGACTTCCAGCACAGCAAAGGCAAGGAACCCTACAGCTCTTCCAAATATGCCACTGACCTTTTGAGTGTGGCTTTGAACAGGAACTTCAACCAGCAGGGTCTCTATTCCAATGTGGCCTGTCCAGGTACAGCATTGACCAATTTGACATATGGAATTCTGCCTCCGTTTATATGGACGCTGTTGATGCCGGCAATATTGCTACTTCGCTTTTTTGCAAATGCATTCACTTTGACACCATATAATGGAACAGAAGCTCTGGTATGGCTTTTCCACCAAAAGCCTGAATCTCTCAATCCTCTGATCAAATATCTGAGTGCCACCACTGGCTTTGGAAGAAATTATATTATGACCCAGAAGATGGACCTAGATGAAGACACTGCTGAAAAATTTTATCAAAAGTTACTGGAACTGGAAAAGCACATTAGGGTCACTATTCAAAAAACAGATAATCAGGCCAGGCTCAGTGGCTCATGCCTATAATTCCAGCACTTTGGGAGGCCAAGGCAGAAGGATCACTTGAGACCAGGAGTTCAAGACCAGCCTGAGAAACATAGTGAGCCCTTGTCTCTACAAAAAGAAATAAAAATAATAGCTGGGTGTGGTGGCATGCGCATGTAGTCCCAGCTACTCAGAAGGATGAGGTGGGAGGATCTCTTGAGGCTGGGAGGCAGAGGTTGCAGTGAGCTGAGATTGTGCCACTGCACTCCAGCCTGGGTGACAGCGAGACCCTGTCTCAAAATATGTATATATTTAATATATATATAAAACCAGAGCTGACAATGACACTCTGGAACATTGCATACCTTCTGTACATTCTGGGGTACATGGATTTCTACTGAGTTGGATAATATGCATTTGTAATAAACTATGAACTATG
modifications: CDS (12)..(1034)
B4: 291 (nucleic acid, listed as Homo sapiens)
chain: CGCCATCCCTGACCCATGGCGCTGAAGAGGATTCAGAAAGAATTGAGTGATCTACAGCGCGATCCACCTGCTCACTGTTCAGCTGGACCTGTGGGAGATGACTTGTTCCACTGGCAAGCCACTATTATGGGGCCTCCTGATAGCGCATATCAAGGTGGAGTCTTCTTTCTCACTGTACATTTTCCGACAGATTATCCTTTTAAACCACCAAAGATTGCTTTCACAACAAAAATTTACCATCCAAACATAAACAGTAATGGAAGTATTTGTCTCGATATTCTGAGGTCACAATGGTCACCAGCTCTGACTGTATCAAAAGTTTTATTGTCCATATGTTCTCTACTTTGTGATCCTAATCCAGATGACCCCTTAGTACCAGATATTGCACAAATCTATAAATCAGACAAAGAAAAATACAACAGACATGCAAGAGAATGGACTCAGAAATATGCAATGTAA
modifications: CDS (16)..(456)

For the data set, the system named is STAT6. As to the kind of experiment: Screening of full-length cDNA clones for promotion of STAT6 activation (luciferase reporter N4×8-luc). Type of data set: cell-based. The conditions noted are these: NIH3T3 cells cotransfected with N4×8-luc reporter and cDNA plasmid; 48 h culture, then mouse IL-4 0.5 ng/ml for 6 h. The method, then:
As a preferable method, NIH3T3 cells are inoculated on 10% FBS (Fetal Bovine Serum)-containing IMDM medium in a 96-well cell culture plate to a final cell density of 1×10^4 cells/well, and cultured for 24 hours at 37° C., in the presence of 5% CO2. Then, the luciferase reporter plasmid N4×8-luc which has a STAT6 response sequence, and the expression vector are cotransfected into the cells in a well using FuGENE 6 (Roche). After 48 hours of culture at 37° C., in the presence of 5% CO2 mouse IL-4 (Immuno Biological Laboratories Co., Ltd.) is added to a final concentration of 0.5 ng/ml. After culturing for further 6 hours, promoting activity for STAT6 activation is then measured by measuring luciferase activity using a long term luciferase assay system, Picagene LT2.0 (Toyo Ink Mfg). For example, luciferase activity can be measured using PerkinElmer's Wallac ARVOTMST 1420 MULTILABEL COUNTER. The method for gene introduction by FuGENE6, and measurement of luciferase activity by Picagene LT2.0 can be performed respectively according to the attached protocols. In a method of gene introduction with a 96-well plate using FuGENE6, the amount of FuGENE6 per 1 well is suitably 0.3 to 0.5 μl, preferably 0.3 μl; the amount of N4×8-luc reporter plasmid is suitably 50 to 100 ng, preferably 100 ng; and the amount of expression vector is suitably 50 to 100 ng, preferably 100 ng. An ability (action) to promote STAT6 activation refers to an ability to increase the reporter activity (luciferase activity) relative to the control experiment (for cells into which the reporter gene and a null vector were introduced). Increase in reporter activity is preferably by a factor of 1.5 or more, more preferably by a factor of 3 or more, and still more preferably by a factor of 6 or more.
NIH3T3 cells (purchased from Dainippon Pharmaceutical) were grown to 1×10^4 cells/well in a 96 well plate for cell culture for 24 hours at 37° C. (in the presence of 5% CO2) using 10% FBS containing IMDM medium. Then, 100 ng of luciferase reporter plasmid N4×8-luc having a STAT6 response sequence and 2 μl of the full-length cDNA prepared in above Example 1.(3) were cotransfected into the cells in a well using FuGENE 6 (purchased from Roche) according to the manufacturer's protocol. The luciferase reporter plasmid N4×8-luc having the STAT6 response sequence was constructed as follows. […] 157, 2058-2065 (1996)], oligonucleotides having the following sequences were synthesized:
The synthesized oligonucleotides were dissolved in sterile water to be 1μg/μl, respectively, mixed in 10 μl lots, and adjusted the volume to 32 μl with sterile water. The solution was heated for 5 min at 90° C., and gradually cooled down to room temperature to prepare a double-stranded oligonucleotide solution. The solution was reacted with T4 polynucleotide kinase (Takara Shuzo) according to the attached manual, then the reaction product was purified in a usual manner. Separately, SV40 promoter region of pGL3-Promoter vector (Promega) was replaced by the HSV thymidine kinase promoter sequence (from −50 to +10) with Hind III site and BglII site to construct a vector tk-luc. The aforesaid double-stranded oligonucleotide fragments were inserted into the XhoI site of this tk-luc vector using T4 DNA ligase (GIBCO/BRL). The obtained clones were sequenced according to a usual method, and clones in which plural oligonucleotide fragments were inserted were selected. […] The four-interlinked DNA fragments were excised from the N4×4-luc with a XhoI and a BglII site and purified to be inserted into a BamHI and a XhoI site of pBluescript II KS+ (Stratagene). The four-interlinked DNA fragments were excised from this plasmid with KpnI and SpeI and inserted into a KpnI and a NheI site of N4×4-luc plasmid to finally obtain N4×8-luc.
In general terms: A reporter such as luciferase makes a cellular process visible.
Take B1: the “Activity = (luciferase activity of the gene of each SEQ ID NO:)/(luciferase activity of pME18S-FL3)” value was determined as 11.7.
In the case of B2 it was 17.0.
With B3, the “Activity = (luciferase activity of the gene of each SEQ ID NO:)/(luciferase activity of pME18S-FL3)” value is given as 14.7.
As for B4, the “Activity = (luciferase activity of the gene of each SEQ ID NO:)/(luciferase activity of pME18S-FL3)” value amounted to 13.0.

(Values after patent publication US20030092616A1, “STAT6 activation gene” (priority 2001, published 2003).)
